This data set deals with the molecule itself. Briefly: Western blot of dimer and monomer bands after SDS-PAGE; hMDMs incubated with MAC (+/- anti-C7) or 5 uM MitoPQ for 3 hours; cells treated with 80 mM MMTS for 10 min at RT before lysis; % dimer = SI dimer/(SI dimer + SI monomer) x 100, expressed relative to untreated control. In general terms: In western blotting, separated proteins are transferred to a membrane and probed.

B1: mitochondrial peroxiredoxin 3 (natural protein, human (endogenous in hMDMs), UniProt P30048 62-256, looked up)
chain: APAVTQHAPYFKGTAVVNGEFKDLSLDDFKGKYLVLFFYPLDFTFVCPTEIVAFSDKANEFHDVNCEVVAVSVDSHFSHLAWINTPRKNGGLGHMNIALLSDLTKQISRDYGVLLEGSGLALRGLFIIDPNGVIKHLSVNDLPVGRSVEETLRLVKAFQYVETHGEVCPANWTPDSPTIKPSPAASKEYFQKVNQ
notes: peroxiredoxin 3 (Prx3), mitochondrial, endogenous in human monocyte-derived macrophages; detected with rabbit anti-Prx3 (Abcam Ab73349); Cells were incubated in 80 mM methylmethanethiosulfonate (MMTS) for 10 min before lysis; also called Prx3; Prx; source: endogenous, hMDM (human monocyte-derived macrophage) lysate
B1: the stoichiometry N – broadly, the number of molecules, sites or subunits per partner or assembly – is 2.

The values above are taken from article PMC9554752, “Complement membrane attack complex is an immunometabolic regulator of NLRP3 activation and IL-18 secretion in human macrophages” (Frontiers in Immunology, 2022).
